From patent US5668109A, “Peptides for inhibiting pepsin release” (Societe de Conseils de Recherches et D'Applications …, priority 1994, dated 1997)
Square brackets hold non-standard residues; d marks the D form. Ends that are not written are not given here.

Conditions: in vivo

Pro--Val--Thr--Lys--Pro--Gln-D-Ala--NH2 (PVTKPQ[dA]-NH2; N-terminus assumed; SMILES CC(C)[C@H](NC(=O)[C@@H]1CCCN1)C(=O)N[C@H](C(=O)N[C@@H](CCCCN)C(=O)N1CCC[C@H]1C(=O)N[C@@H](CCC(N)=O)C(=O)N[C@H](C)C(N)=O)[C@@H](C)O) [P^D1]
quantity found in the organism: greater than 10%
